Test: soluble on expression in E. coli; label from the status in PepcDB or PDB records

Row | Sequence | soluble on expression in E. coli
1 | MGSSHHHHHHSSGRENLYFQGMVKNYVLDTNVLIHDPDSIFSFEDNNVIIPLPVLEELDKLKREHGSVGKNAREVIRHLDELRKKGNLRKGIPLENGGILRVMVLEREVENVPRFLHERYVDNIILAYVIELMNREKIPTILVSKDINLRVKADSLGIPAQDYLTDRSELETMPKGYVEIDDEELKKQLKVKVTVEKKLDLLDNFYIDLGGVYGKYRKGKVLRVEPFETMGISPRNREQIFSMDALLDDEIPLVFLVGIAGTGKTLLALACGLYKVLVEKRYKKLIVTRPTVPMGRDIGYLPGELEKKMKPWLQPIMDNLELISSLSGLKIKELEKQEILEVEAISFIRGRSIPKQFIIIDEAQNLTPHEVKTILTRVGEDTKIVLVGDPYQIDTPYLDKDTNGLVYAALKLLESDLSAVIKLEKGERSRLATIAAELL | soluble
2 | GSHMSAGIGESRTELLTWLNGLLNLNYKKIEECGTGAAYCQIMDSIYGDLPMNRVKFNATAEYEFQTNYKILQSCFSRHGIEKTVYVDKLIRCKFQDNLEFLQWLKKHWIRHKDESVYDPDARRKYR | soluble
3 | MAHHHHHHMHFSQYPLRLTDLERQKLQLIVAALKVSEYTDDVDDFMRPYGKEGRMEAAMREFIDIVVGLAIASDAIPRSVKNSFLAGEVKVATVVPLLEDLFEIMRRHKRLNPFSHRGEFGKLMMMLQDVQKRSLQRALEIQSTLVIPVRTVEAALSSIYCETLVDDEAVRTDYLKRTGAEKQAGMQSLIERYGKGDEHKKEVIEHCLRSIDDVYSFIQSNTRPLRTLRRWLSRDFEPLPSDDVYSISIRHGRSGACFTHSHATHCQYVTESLLLWENVQKNILNLWEAAEDDMLVEGQGQYVVANTGQGFHRMCSAPKSYGVMSRLVRDTEQRMGGWVGIKVIHLGDRDVPNPLVFIDKYTVIPRLVKPVVQTLHALRYVLHEEDEEEEGQPQVAHEYDNYPGLRNLLRSKYHSYSELMMMILSDFFKHAFDGSGDDGGSCIDGRLTSAWNWCHQLHKKKYYDAFVLTGFAGFD | not soluble
4 | MESVPSPRRVVLTPGARRALDAAGRLFYERGIHAVGVDLIAAEAGVTKKTLYDRFGSKEQIVVEYLADRDERWRAFLAGHLDTAGDSPGRRLTAIFDASREWTAENSAKGCSMVNAHAEISDPAHPAYAVIVGQKRWMLDLFTGVCRDASVRDPETLARTVMLLHEGALVSHGLQVFPEAVRLASDQASALLAAAAGPAR | not soluble
5 | MKIVTFQGGLGNQLFQYVFYLWLDMRCDKDNIYGYYPKKGLRAHNGLEIEKVFEVKLPNSSLSTDLIVKSIKLINKIFKNRQYISTDGRLDVNGVLFEGFWQDKYFWEDVDIVLNFRWPLKLDVTNSFIMTKIQANNSISIHIRRGDYLLPKYRNIYGDICNEEYYQKAIEYILKCVDDPFFFVFSDDIDWAKSIINVSNVTFVNNNKGKDSYIDMFLMSLCHHNIIANSTFSWWAAQLNKHSDKIMIAPIRWFKSLFKDPNIFTESWIRILEHHHHHH | not soluble
6 | MAHHHHHHMPFTEVYGVEQFRDIANDPTLTVVCFSAVWCGPCKTIEKDLDRLTYEFASVRFAKVDADNNTDIVSKCRVMQLPTFMLVRAGQMLGYVIGADLAQLKAKIREEANKS | soluble
7 | MKKSVDFIGVGTGPFNLSIAALSHQIEELNCLFFDEHPHFSWHPGMLVPDCHMQTVFLKDLVSAVAPTNPYSFVNYLVKHKKFYRFLTSRLRTVSREEFSDYLRWAAEDMNNLYFSHTVENIDFDKKSRLFLVQTSRGEYFARNICLGTGKQPYLPPCVKHVTQSCFHASEMNLRRPDLSGKRITVVGGGQSGADLFLNALRGEWGEAAEINWVSRRNNFNALDEAAFADEYFTPEYISGFSGLKEDIRHQLLDEQKMTSDGITADSLLTIYRELYHRFEVLRKPRNIRLLPSRSVTTLESSGPGWKLLMEHHLDRGRESLESDVVIFATGYRSALPQILPSLMPLITMHDKNTFKVRDDFTLEWSGPKENNIFAVNASMQTHGIAEPQLSLMAWRSARILNRVLGRDLFDLSMPPALIQWRSGSRKKPQPEAAALTHYTTNIQE | soluble
8 | GSRRLLEETLAPFRLNHDQLAAVQAQMRKAMAKGLRGEASSLRMLPTFVRATPDGSERGDFLALDLGGTNFRVLLVRVTTGVQITSEIYSIPETVAQGSGQQLFDHIVDCIVDFQQKQGLSGQSLPLGFTFSFPCRQLGLDQGILLNWTKGFKASDCEGQDVVSLLREAITRRQAVELNVVAIVNDTVGTMMSCGYEDPRCEIGLIVGTGTNACYMEELRNVAGVPGDSGRMCINMEWGAFGDDGSLAMLSTRFDASVDQASINPGKQRFEKMISGMYLGEIVRHILLHLTSLGVLFRGQQIQRLQTRDIFKTKFLSEIESDSLALRQVRAILEDLGLPLTSDDALMVLEVCQAVSQRAAQLCGAGVAAVVEKIRENRGLEELAVSVGVDGTLYKLHPRFSSLVAATVRELAPRCVVTFLQSEDGSGKGAALVTAVACRLAQLTR | soluble
9 | MIIPEYGRTLTPEEWRPVVDEMLEATHIIFTTHENSDGDGLGSQVALALALKALGKEVAIFNPTEVPPNYLFLKELHEINLFRDRDEESMQEFFLADLLVVLDANLHDRIGRLWPHVEFARQMSRLKVLCIDHHLEPEDFADITVCETYASSTGELVCDLVTALELRTGQQLFTPEVASALYAAIMTDTGSFRFPKTTPYTYRLAGMLVEKGADPELVYDRIYNAL | not soluble
10 | MTTTIEVGMLGLGTVGSGVVERLTRSAAKIEQTQGIRLHLAAVAVNHLNAPRTVQLPIGTRLTDSLTNVVCDRKIQLVIEVMGTVATAKKAIVAALNQGKAVVTANKDLIATAGPELAALAKKQGCDLFYEASVAGGIPILRTLTDSYVTDNVQAVSGIINGTANYMLSAMATGQSYEQALATAQATGYAEADPTNDVAGIDAAYKLMILSRFAFGQELSLPQIAPTGITHLSASVCRLAAENGWQIKLLAQIQRHGSGLYCRVAPVAVPVDQPLSQINGVQNAVAVQSEAIGTSLYTGPGAGSTATANSVLNDVLVAAKHLINGYRMIRNQKRSVSLTVTRFDQLPQTYLGIGPVAPEAVKYYANEADFSVKTIADDCYQITGLSAVKRKKLRANLPLTLIPIAGTTDWKQVTENSITSPINVAILEHHHHHH | soluble
11 | MTSVLNSFWLGIKVPLRKAVYWLQYNLLKRKRNAFNILMAEETIDYIVKHECSVCRYGDGEIDMITCLKEGFDESRKSDFQTYDEKLAWRLKQILGNGSDEELNLIVCIPYVWKSHRSLSFTARRFIERSFVNNREMIFASIHPTRLYGDSYFTRFYIDARNKKKKGSYIQHCRQIWQGRDLCIIEGEQSRLGVGNDLFDNAQSIERILCPALDAFAKYDEIMKAACTVNKAKLVLIALGHTATVLAYDLAEVGYQAIDIGHIDIEYEWFLMRAPKKVPVPHKYVNEVPEGRQFSEERNKEYLSQIIYSVK | not soluble
12 | AHHHHHHGSGASPVIVPVRCFTCGKVIGDKYYEFKRRVEAGEDPEKVLDDLGLERYCCRRMLLSHVELIDDIMHYRVY | not soluble
13 | MHHHHHHQYKLALNGKTLKGETTTEAVDAATAEKVFKQYANDNGVDGEWTYDDATKTFTVTEGSQWQPQLQQLRDMGIQDDELSLRALQATGGDIQAALELIFAGGAP | soluble
14 | MSLNRNAILSKRQKQFIERVAWGASYKEVADFFHVSWSTVDNTLRNAKTKLGLSKVTELGAWWFCTNYGISFDLSPIARQCTAGIILFLFSLGEVTTITDASYTMQIVRRTRTEYRIRRHETSIYQPYIINEGHHHHHH | not soluble
15 | MGSDKIHHHHHHMMLSVSLAALRTFVEVARLRSFKDAAQSLGVTSGAVSQQVKLVENRLDVTLFERSGRNVKLTEQGLRLLGAIHVPFEQIREAVEDFDRRRSARNVVRIVTPIALASHWLVPRMDRFSRRHPDIELHIDTAHAEGVRRQLFDIAIQYGNETAPGVEAKRLPSSKLVVVGSPQLLEGASPIRDPSDCLKFPLLHDHDRLNWPAWFRANGSTHLPAASRKGLSFADESLLVAAAAAAQGLALVRDIHAENLLLHGRLKIAIETSMEPFQSYYLLTPSLVSQRPVVDACKNWILSEMARPVFLDLLSRP | not soluble
16 | MGSDKIHHHHHHAKIRAKNADSYPFMYKNYPFLRPWVDSLNQAHALRDTFVLNPEGIRLHAYYIAAPQPTKKTAVIVHGYTDNAIRMFMIGYLYNHDLQYNVLLPDLQHQGESGGPAIQMGWKDRLDVMQWMHIANQIYGDSTQMVVHGISMGGATTMMVSGEAQPYFVKCFVEDCGYTSVWDEFSHELKSSFHLPSFPLMNTTSWLCQKKYGWNFEEASSLNQVKKSHLPMFFIHGDKDTYVPTWMVYPLYEAKSAPKQLWIVPGAAHAVSYKENKEEYTRKVKEFTDRYIH | not soluble
17 | MAQGYRRDHNHHHESGYKRPSDPGGDLPSDKRHRPPPAEGRTLSADRRLYERHFPLYKQPLELGCFSLDARRNFFNDHRQLRYYVEPRRSPDFNLRDGYTSRFIKRDDGVKEKLDHMLRWILENRHKMQNSNSSSCALGVDFITWRGHLTKVLTTPYETQEGWMMAACKFRGSIYISEVETEQARENRETRSERQEEMMYWGYKFEQYTCADGADGTPDPGGVVNTNEAFCTVVQTRLADQSQTLRV | not soluble
18 | MSVSNKLGDLASKVYENVLLEEVKKYPRPRHIGIITDGNRRYARNVGISENEGHVKGKEKVEEVVDWCMELDIRIVTFYAFSTENFRRSPEEVDFLFHLIDNAFKSLLKDERVYKNRINVKVIGNLSILPAYLRQTIHIVEETTKNFNNYQLNLAIGYGGREEILDAIKRITRDAMDGKLNIDELDEEKFRMYLYDGRIPDPDLILRTSGEERISNFLLWQSAYSELYFSDVYWPEFSKLDFLRAIYSYQRRQRRFGR | soluble
19 | MGSDKIHHHHHHMFKDEKTPDEYAEEARSDIAAGNYAEAIEKIDKAIDKEPRNPSLHLIRADALYRQGNYSSAIEELNFTEHMDKNNPELFSLKSICYGSMGDFKRSKEEADKAIKADQSYPFAYYNRAAALRGLGDVDGAEKDFRKYIEMQPSDPDPHYDLAEIYFEKKDYKKAMEEVKAVLRNDKSNEKAYDLKLQIHLATNDGEGYFKALLEAFKNTENFKYIGTLTDGLIGIGSYDTAEDILKQFIKVYEKEPYLYDLLARTYDQEGKAKEADETYNTLLRLNNSRESHIYWFDYLLDSGRYDDLLSEIEKSGFKDEEILEIEYIAQDASGKHEEALKTAGELVKMDQTPYSRSLYATQLRKLGKLEDALTYLGSGDQDSDEVQFEKFNILLEMGNHSLAMESLKNSITASDDDEERLGHLITGISSAISKADFNTVNNFLDGLKMPEEEENIAVYALKGIVSGIFESYSKGKDMLIGLDEDRDNVCDFASYLANLMQGKASEFLNKFIEENCKKPEE | not soluble
20 | MESNTWNTIHDNKKENAALNDVQVEVNYAIKLDDQWTVRPGMLTHFSSNGTRYGPYVKLSWDATKDLNFGIRYRYDWKAYRQQDLSGDMSRDNVHRWDGYVTYHINSDFTFAWQTTLYSKQNDYRYANHKKWATENAFVLQYHMTPDITPYIEYDYLDRQGVYNGRDNLSENSYRIGVSFKL | not soluble
21 | STFEELNGDYSIERMDSVIKALEEVLRSALPQGCITVGVYEAAKSLNVDPDNVVLCILATDDDDVKDVALQIHFTLIQAFCCENDINILRVNNTRRLANILGGAGMHGSEQMDLHCILVTVPHASTWKNPALGKVNRFCRESRCMDQWVPIINLPER | soluble
